In PMC8734478 (Science (New York, N.Y.), 2021):
Ends that are not written are not given here. * marks the point of attachment. Palmitoyl = CCCCCCCCCCCCCCCC(=O)*

Biological target: human Hedgehog acyltransferase (HHAT) (human, UniProt Q5VTY9 1-493)
Experiment: cryo-EM structure

human Hedgehog acyltransferase (HHAT), sequence (Q5VTY9 whole entry): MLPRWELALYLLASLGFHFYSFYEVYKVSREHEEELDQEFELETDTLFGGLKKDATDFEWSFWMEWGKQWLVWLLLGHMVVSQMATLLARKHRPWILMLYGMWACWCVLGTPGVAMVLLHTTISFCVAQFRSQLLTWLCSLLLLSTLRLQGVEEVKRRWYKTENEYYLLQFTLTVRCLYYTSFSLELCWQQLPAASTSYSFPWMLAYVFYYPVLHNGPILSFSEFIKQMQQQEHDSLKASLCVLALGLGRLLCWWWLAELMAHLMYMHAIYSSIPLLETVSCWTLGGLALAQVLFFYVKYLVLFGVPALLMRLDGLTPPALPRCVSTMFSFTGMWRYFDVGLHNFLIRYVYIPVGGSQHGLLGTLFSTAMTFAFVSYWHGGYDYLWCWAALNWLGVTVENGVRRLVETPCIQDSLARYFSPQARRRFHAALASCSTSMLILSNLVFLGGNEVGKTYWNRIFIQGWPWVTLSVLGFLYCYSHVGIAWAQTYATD

Palmitoyl-CGPGRGFGKRRH (peptide, UniProt Q15465 24-35, looked up)
binding result: binds
